Consider 1 molecule from publication PMC7407159.

This test deals with T1, histidine tagged full length homo sapiens mitofusin 1 (hsMfn1) (human), Q8IWA4.
T1 chain: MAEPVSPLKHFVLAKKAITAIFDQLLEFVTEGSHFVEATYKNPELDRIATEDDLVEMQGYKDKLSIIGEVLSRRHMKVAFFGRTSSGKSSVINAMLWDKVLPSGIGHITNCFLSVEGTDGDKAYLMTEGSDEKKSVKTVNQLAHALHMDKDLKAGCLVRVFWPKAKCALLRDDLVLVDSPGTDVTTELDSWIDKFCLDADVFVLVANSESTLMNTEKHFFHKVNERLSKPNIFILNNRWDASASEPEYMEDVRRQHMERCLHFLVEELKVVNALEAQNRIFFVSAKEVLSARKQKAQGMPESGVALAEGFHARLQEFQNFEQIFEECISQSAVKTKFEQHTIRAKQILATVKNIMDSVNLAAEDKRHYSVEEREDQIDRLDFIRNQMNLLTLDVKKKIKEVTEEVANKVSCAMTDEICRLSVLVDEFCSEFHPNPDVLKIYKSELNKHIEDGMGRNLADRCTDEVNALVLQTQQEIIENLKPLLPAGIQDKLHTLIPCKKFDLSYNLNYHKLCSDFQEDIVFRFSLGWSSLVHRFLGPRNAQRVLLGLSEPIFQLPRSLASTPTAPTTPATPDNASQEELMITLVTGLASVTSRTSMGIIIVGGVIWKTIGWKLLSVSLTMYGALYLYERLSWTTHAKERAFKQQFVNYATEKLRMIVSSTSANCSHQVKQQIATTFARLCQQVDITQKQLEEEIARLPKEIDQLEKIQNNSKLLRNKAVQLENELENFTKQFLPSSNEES
The test can be described thus: vesicle adhesion (shape of adhered GUV doublets by confocal microscopy), adhesion strength fitted to a cooperative binding model; His-Mfn1 (detergent resistant fraction of Mfn1-IMVs) bound by its histidine tag to POPC/DOGS-NTA GUVs with 10, 15, 20 and 25 mol% DOGS-NTA; 10 mM GDP, 2.5 mM …; 22 °C; Eadh against [NTA] fitted to Equation (6); two-dimensional binding equilibrium constant for planar membranes, Mfn1 with …. The conditions noted are these: remark: other sources report otherwise.

B1: histidine tagged full length homo sapiens mitofusin 1 (hsMfn1), Q8IWA4 1-741 (natural protein)
chain: MAEPVSPLKHFVLAKKAITAIFDQLLEFVTEGSHFVEATYKNPELDRIATEDDLVEMQGYKDKLSIIGEVLSRRHMKVAFFGRTSSGKSSVINAMLWDKVLPSGIGHITNCFLSVEGTDGDKAYLMTEGSDEKKSVKTVNQLAHALHMDKDLKAGCLVRVFWPKAKCALLRDDLVLVDSPGTDVTTELDSWIDKFCLDADVFVLVANSESTLMNTEKHFFHKVNERLSKPNIFILNNRWDASASEPEYMEDVRRQHMERCLHFLVEELKVVNALEAQNRIFFVSAKEVLSARKQKAQGMPESGVALAEGFHARLQEFQNFEQIFEECISQSAVKTKFEQHTIRAKQILATVKNIMDSVNLAAEDKRHYSVEEREDQIDRLDFIRNQMNLLTLDVKKKIKEVTEEVANKVSCAMTDEICRLSVLVDEFCSEFHPNPDVLKIYKSELNKHIEDGMGRNLADRCTDEVNALVLQTQQEIIENLKPLLPAGIQDKLHTLIPCKKFDLSYNLNYHKLCSDFQEDIVFRFSLGWSSLVHRFLGPRNAQRVLLGLSEPIFQLPRSLASTPTAPTTPATPDNASQEELMITLVTGLASVTSRTSMGIIIVGGVIWKTIGWKLLSVSLTMYGALYLYERLSWTTHAKERAFKQQFVNYATEKLRMIVSSTSANCSHQVKQQIATTFARLCQQVDITQKQLEEEIARLPKEIDQLEKIQNNSKLLRNKAVQLENELENFTKQFLPSSNEES
With B1, the two-dimensional binding equilibrium constant for planar membranes (K2D' of Equation 6, printed as KD') (nm^2 per molecule) came out at 0.1.
